Source: publication PMC3813506 (2013)
Values belong to the molecule of their own block, whether it stands above or below them.

Legend:
[1] = biological target: T1, Nupr1 (Homo sapiens, UniProt O60356); test: ITC; 40 µM MSL1 injected into 4 µM Nupr1 in the cell; 25°C, 10 mM acetate buffer pH 4.5; single-site binding model; heat of dilution of MSL1 used as reference
T1 chain: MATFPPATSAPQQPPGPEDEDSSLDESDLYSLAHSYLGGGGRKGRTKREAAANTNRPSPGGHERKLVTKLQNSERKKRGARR

[2] = biological target: Nupr1-Flag (pcDNA3-Nupr1-Flag) (UniProt O60356); test: proximity ligation; MiaPaCa-2 cells transfected with Nupr1-Flag and MSL1-V5, treated with cisplatin (5 µM or 10 µM) for 24 h; DuoLink kit; also combined with γ-H2AX staining
[3] = tested on: TRX-MSL1;Nupr1 (Homo sapiens;); test: ITC; conditions: MSL1 titrated into preformed Nupr1 + damaged-DNA complex; dH 28 kcal/mol; chemically damaged with etoposide; ITC: 10 mM acetate pH 4.5, 25 C, 0.03 mg/ml damaged DNA; CD/fluorescence: 50 mM acetate pH 4.5, 25 C, 20 uM protein; agarose gel: 2%, 1x TAE; NMR 25 C
[4] = tested on: Nupr1; test: ITC; conditions: apparent; dH -23 kcal/mol; DNA MW assumed (10^4 kDa); chemically damaged with etoposide; ITC: 10 mM acetate pH 4.5, 25 C, 0.03 mg/ml damaged DNA; CD/fluorescence: 50 mM acetate pH 4.5, 25 C, 20 uM protein; agarose gel: 2%, 1x TAE; NMR 25 C
[5] = tested on: T2, TRX-MSL1 (Homo sapiens); test: ITC; conditions: apparent; dH 29 kcal/mol; DNA MW assumed (10^4 kDa); chemically damaged with etoposide; ITC: 10 mM acetate pH 4.5, 25 C, 0.03 mg/ml damaged DNA; CD/fluorescence: 50 mM acetate pH 4.5, 25 C, 20 uM protein; agarose gel: 2%, 1x TAE; NMR 25 C
T2 sequence: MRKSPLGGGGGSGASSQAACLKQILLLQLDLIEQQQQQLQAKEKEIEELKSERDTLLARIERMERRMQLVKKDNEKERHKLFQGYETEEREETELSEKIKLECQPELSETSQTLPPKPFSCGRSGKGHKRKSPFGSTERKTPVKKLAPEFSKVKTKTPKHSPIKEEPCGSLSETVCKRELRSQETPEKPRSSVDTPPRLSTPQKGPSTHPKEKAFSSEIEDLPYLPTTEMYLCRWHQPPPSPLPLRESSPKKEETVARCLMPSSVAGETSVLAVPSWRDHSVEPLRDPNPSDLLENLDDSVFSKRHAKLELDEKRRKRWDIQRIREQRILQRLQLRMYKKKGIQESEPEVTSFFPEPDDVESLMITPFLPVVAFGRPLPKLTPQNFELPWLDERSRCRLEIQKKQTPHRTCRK

[6] = biological target: T1, Nupr1; test: ITC

Molecule: TRX-tagged MSL1 (His-tagged TRX-MSL1 fusion protein, human MSL1, 413-residue-long differentially spliced isoform) (natural protein)
Kd [1]: 2800 nM | dH [1]: 39 kcal/mol

Molecule: etoposide-damaged DNA
Kd [3]: 800 nM | Kd [4]: 400 nM | Kd [5]: 1200 nM

Results, then the molecule that gave them:

PLA dots (PLA combined with γ-H2AX staining, cisplatin) [2]: 53 PLA dots | PLA dots per nucleus (5 µM cisplatin) (dots PLA per nucleus) [2]: 32 | PLA dots per nucleus (10 µM cisplatin) (dots PLA per nucleus) [2]: 57
Molecule: MSL1-V5 (pcDNA4-MSL1-V5) (from UniProt Q68DK7 1-614) (natural protein)

Kd [6]: 800 nM
B1: MSL1 (protein)
chain: MTMRSAVFKAAAAPAGGNPEQRLDYERAAALGGPEDEPGAAEAHFLPRHRKLKEPGPPLASSQGGSPAPSPAGCGGKGRGLLLPAGAAPGQQEESWGGSVPLPCPPPATKQAGIGGEPAAAGAGCSPRPKYQAVLPIQTGSLVAAAKEPTPWAGDKGGAASPAATASDPAGPPPLPLPGPPPLAPTATAGTLAASEGRWKSMRKSPLGGGGGSGASSQAACLKQILLLQLDLIEQQQQQLQAKEKEIEELKSERDTLLARIERMERRMQLVKKDNEKERHKLFQGYETEEREETELSEKIKLECQPELSETSQTLPPKPFSCGRSGKGHKRKSPFGSTERKTPVKKLAPEFSKVKTKTPKHSPIKEEPCGSLSETVCKRELRSQETPEKPRSSVDTPPRLSTPQKGPSTHPKEKAFSSEIEDLPYLSTTEMYLCRWHQPPPSPLPLRESSPKKEETVARCLMPSSVAGETSVLAVPSWRDHSVEPLRDPNPSDLLENLDDSVFSKRHAKLELDEKRRKRWDIQRIREQRILQRLQLRMYKKKGIQESEPEVTSFFPEPDDVESLMITPFLPVVAFGRPLPKLTPQNFELPWLDERSRCRLEIQKKQTPHRTCRK
modifications: Nupr1 preformed complex with etoposide-damaged DNA
